The source of these data is patent US20190367620A1 (Merck KGaA, published 2019).

Changes are numbered by the printed parent chain.

One experiment concerns the target FGFR1 on NCI-H520 cells (human, UniProt P11362 22-822). Put plainly: cell-based or functional assay.
A further experiment has as its target T1, rheFGFR1a-IIIc (rhesus monkey).
T1 construct: Bought, His6 tag; also called rhesus monkey FGFR1a-IIIc His6-tagged
Kind of experiment: SPR (Biacore 4000), antibody captured, His-tagged FGFR1 injected; no unit in the table, nM inferred from paragraph 90. The protocol:
(§1) Binding affinities of anti-FGFR1 antibodies to FGFR1 were measured by Surface Plasmon Resonance (SPR) using a GE Healthcare BIAcore 4000 instrument as follows. Goat anti-human Fc antibody (Jackson ImmunoResearch Laboratories #109-005-098) was first immobilized on BIAcore carboxymethylated dextran CM5 chip using direct coupling to free amino groups following the procedure described by the manufacturer. Antibodies were then captured on the CM5 biosensor chip to achieve approximately 200 response units (RU). Binding measurements were performed using the running HBS-EP+ buffer. A 2-fold dilution series of His-tagged FGFR1 proteins were injected at a flow rate of 30 μl/min at 25° C. Association rates (kₒₙ, per mol/s) and dissociation rates (koff, per s) were calculated using a simple 1:1 Langmuir binding model (Biacore 4000 Evaluation Software). The equilibrium dissociation constant (KD, mol) was calculated as the ratio of koff/kₒₙ.

For experiment [1], the target named is T2, human FGFR1b-IIIb extracellular domain with a HIS tag (human).
T2 construct: also called huFGFR1b-IIIb; hFGFR1b-IIIb
T2 chain: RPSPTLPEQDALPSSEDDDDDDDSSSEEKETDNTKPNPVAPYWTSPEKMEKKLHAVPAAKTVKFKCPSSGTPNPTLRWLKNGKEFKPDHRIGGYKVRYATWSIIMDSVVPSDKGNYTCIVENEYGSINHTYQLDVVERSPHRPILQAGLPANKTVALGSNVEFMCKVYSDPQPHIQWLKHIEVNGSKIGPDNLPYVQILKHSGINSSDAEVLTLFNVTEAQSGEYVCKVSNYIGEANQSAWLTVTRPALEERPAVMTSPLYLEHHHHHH
Described as above. As to the method: as §1

The target of experiment [2] is T3, human FGFR1b-IIIc extracellular domain with a HIS tag (human, UniProt P11362 22-376).
T3 construct: also called huFGFR1b-IIIc; hFGFR1b-IIIc
T3 sequence: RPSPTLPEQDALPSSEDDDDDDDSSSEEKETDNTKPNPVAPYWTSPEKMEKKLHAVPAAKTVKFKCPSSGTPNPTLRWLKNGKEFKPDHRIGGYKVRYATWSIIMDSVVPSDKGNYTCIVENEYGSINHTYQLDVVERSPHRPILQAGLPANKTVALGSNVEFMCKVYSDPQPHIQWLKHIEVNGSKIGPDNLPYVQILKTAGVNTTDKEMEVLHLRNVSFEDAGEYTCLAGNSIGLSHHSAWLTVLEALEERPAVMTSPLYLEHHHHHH
The experiment is described as above. As to the method: as §1

A further experiment has as its target T4, ratFGFR1a-IIIc (rat, UniProt Q04589 22-376).
T4 construct: Bought, His6 tag; also called rat FGFR1a-IIIc His6-tagged
T4 sequence (looked up): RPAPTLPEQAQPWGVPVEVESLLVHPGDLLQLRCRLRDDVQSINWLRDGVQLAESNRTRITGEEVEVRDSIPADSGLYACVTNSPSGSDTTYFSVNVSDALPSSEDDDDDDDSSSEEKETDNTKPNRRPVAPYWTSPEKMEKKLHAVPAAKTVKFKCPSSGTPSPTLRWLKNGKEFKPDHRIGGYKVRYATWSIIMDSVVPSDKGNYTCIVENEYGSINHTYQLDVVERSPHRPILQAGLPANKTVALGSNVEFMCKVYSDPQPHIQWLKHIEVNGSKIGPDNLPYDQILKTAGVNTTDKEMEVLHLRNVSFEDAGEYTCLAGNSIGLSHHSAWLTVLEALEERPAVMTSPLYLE
Described as above. The protocol:
as §1

Another experiment has as its target T5, muFGFR1a-IIIc (mouse, UniProt P16092 22-376).
T5 construct: Bought, His6 tag; also called mouse FGFR1a-IIIc His6-tagged; murine FGFR1a-IIIc
T5 sequence (looked up): T4 sequence (looked up) with A53V, N83S, S164N, D287V
Described as above. As to the method:
as §1

Experiment [3] concerns the target T2, human FGFR1b-IIIb extracellular domain …. Put plainly: ELISA, antibody titrated on huFGFR1b-IIIb, O.D. 450 nm [panel huFGFR1b-IIIb].

Chain of FGFR1 on NCI-H520 cells (P11362 22-822): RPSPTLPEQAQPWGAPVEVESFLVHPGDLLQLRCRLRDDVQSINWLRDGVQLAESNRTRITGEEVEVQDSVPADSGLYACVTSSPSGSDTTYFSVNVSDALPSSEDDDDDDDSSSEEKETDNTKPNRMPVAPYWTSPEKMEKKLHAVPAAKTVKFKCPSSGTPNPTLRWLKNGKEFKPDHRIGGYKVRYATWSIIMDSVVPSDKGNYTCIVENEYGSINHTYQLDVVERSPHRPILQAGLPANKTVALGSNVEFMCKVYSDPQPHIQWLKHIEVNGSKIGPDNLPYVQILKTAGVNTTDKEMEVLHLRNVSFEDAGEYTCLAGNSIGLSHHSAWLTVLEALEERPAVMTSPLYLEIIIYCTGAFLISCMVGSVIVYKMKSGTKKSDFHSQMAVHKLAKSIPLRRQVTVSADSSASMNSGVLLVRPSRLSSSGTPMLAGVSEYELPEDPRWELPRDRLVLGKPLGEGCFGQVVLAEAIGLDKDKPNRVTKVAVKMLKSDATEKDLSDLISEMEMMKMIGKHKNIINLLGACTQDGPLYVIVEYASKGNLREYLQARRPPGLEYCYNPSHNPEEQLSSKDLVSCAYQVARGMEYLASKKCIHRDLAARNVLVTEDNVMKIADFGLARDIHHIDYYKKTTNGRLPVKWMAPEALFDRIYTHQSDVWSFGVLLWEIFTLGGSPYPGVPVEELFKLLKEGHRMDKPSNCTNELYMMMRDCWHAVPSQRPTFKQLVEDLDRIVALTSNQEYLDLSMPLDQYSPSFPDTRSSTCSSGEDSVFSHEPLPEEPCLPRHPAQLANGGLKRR

B1: mAb #A08 (antibody, V domains shown)
VH: EVQLQESGPGLVKPSGTLSLTCAVSGGSISSNNWWSWVRQPPGKGLEWIGEIYHSGSTSYNPSLKSRVTISVDKSKNQFSLKLNSVTAADTAVYYCARGTDWFDPWGQGTLVTVSS
VL: QAVLTQPPSVSVAPGQTARITCGGNNIGSESVHWYQQKPGQAPVLVVYDDSDRPSGIPERFSGSNSGNTATLTISRVEAGDEADYYCQVWDSTSDHRVFGGGTKLTVL
notes: Only variable domains are tied to the name mAb #A08 (hit); also called #A08 hit; mAb #08
Regarding B1, the “IC50, inhibition of P-FGFR1 in NCI-H520 cells, FGF1 stimulated” value with FGFR1 on NCI-H520 cells was 4 nM. Besides, in the experiment with FGFR1 on NCI-H520 cells, the “IC50, inhibition of P-FGFR1 in NCI-H520 cells, FGF2 stimulated” value stood at 0.2 nM. Moreover, in the experiment with FGFR1 on NCI-H520 cells, the “IC50, inhibition of P-FGFR1 in NCI-H520 cells, non-stimulated (hashtag: estimated IC50, poor fit)” value is around 1000 nM. The Kd in the experiment with rheFGFR1a-IIIc is 0.46 nM; in experiment [1] it was 0.01 nM; in experiment [2], 0.017 nM; with ratFGFR1a-IIIc, 2.2 nM; with muFGFR1a-IIIc, 2.3 nM. The “EC50 (read off the curve)” value in experiment [3] was around 0.03 nM.
